Data: paper PMC5734868 (ACS infectious diseases, 2017)

Molecular target: the molecule itself
Test: SDS-PAGE of semi-denatured protein

B1: PanD 114Stop (aspartate decarboxylase domain without the C-terminal tail) (domain or fragment)
chain: MLRTMLKSKIHRATVTCADLHYVGSVTIDADLMDAADLLEGEQVTIVDIDNGARLVTYAITGERGSGVIGINGAAAHLVHPGDLVILIAYATMDDARARTYQPRIVFVDAYNKP
binding result: binds
